Source: the supplement of paper PMC10065799, “High-throughput profiling of sequence recognition by tyrosine kinases and SH2 domains using bacterial peptide display” (eLife, 2023)

Key:
AncSZ = assay: phosphorylation enrichment, bacterial display (enrichment ratio); higher = better substrate or ligand; peptides without Tyr show the background
EPHB1 = EPHB1 (UniProt P54762); assay: as above
EPHB2 = EPHB2 (UniProt P29323); assay: as above
FGFR1 = FGFR1 (UniProt P11362); assay: as above
FGFR3 = FGFR3 (UniProt P22607); assay: as above
FGFR3, sequence (P22607 whole entry, looked up): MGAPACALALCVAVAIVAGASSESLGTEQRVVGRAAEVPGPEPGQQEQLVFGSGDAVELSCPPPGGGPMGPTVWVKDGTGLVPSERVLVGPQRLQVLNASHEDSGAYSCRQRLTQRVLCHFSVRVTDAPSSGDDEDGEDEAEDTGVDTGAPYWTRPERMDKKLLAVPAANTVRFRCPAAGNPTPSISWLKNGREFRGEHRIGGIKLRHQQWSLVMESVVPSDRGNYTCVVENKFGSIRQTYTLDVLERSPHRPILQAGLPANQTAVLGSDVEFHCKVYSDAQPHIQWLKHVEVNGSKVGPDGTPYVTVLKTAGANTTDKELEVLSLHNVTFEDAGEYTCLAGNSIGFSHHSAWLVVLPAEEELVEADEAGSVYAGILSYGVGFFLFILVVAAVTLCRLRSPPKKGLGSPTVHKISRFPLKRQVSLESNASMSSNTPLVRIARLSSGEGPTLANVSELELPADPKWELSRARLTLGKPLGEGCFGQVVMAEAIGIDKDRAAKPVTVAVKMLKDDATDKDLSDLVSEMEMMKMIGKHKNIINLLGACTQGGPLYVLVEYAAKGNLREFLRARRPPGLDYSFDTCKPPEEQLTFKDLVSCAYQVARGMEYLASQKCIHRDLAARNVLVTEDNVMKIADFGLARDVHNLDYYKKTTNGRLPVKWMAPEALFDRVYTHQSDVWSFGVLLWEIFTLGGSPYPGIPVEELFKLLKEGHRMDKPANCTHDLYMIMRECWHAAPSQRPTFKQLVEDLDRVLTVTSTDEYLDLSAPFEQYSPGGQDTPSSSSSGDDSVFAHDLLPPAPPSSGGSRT

Fer (mouse) = assay: as above
Fes = Fes (UniProt P07332); assay: as above
Fes, sequence (P07332 whole entry, looked up): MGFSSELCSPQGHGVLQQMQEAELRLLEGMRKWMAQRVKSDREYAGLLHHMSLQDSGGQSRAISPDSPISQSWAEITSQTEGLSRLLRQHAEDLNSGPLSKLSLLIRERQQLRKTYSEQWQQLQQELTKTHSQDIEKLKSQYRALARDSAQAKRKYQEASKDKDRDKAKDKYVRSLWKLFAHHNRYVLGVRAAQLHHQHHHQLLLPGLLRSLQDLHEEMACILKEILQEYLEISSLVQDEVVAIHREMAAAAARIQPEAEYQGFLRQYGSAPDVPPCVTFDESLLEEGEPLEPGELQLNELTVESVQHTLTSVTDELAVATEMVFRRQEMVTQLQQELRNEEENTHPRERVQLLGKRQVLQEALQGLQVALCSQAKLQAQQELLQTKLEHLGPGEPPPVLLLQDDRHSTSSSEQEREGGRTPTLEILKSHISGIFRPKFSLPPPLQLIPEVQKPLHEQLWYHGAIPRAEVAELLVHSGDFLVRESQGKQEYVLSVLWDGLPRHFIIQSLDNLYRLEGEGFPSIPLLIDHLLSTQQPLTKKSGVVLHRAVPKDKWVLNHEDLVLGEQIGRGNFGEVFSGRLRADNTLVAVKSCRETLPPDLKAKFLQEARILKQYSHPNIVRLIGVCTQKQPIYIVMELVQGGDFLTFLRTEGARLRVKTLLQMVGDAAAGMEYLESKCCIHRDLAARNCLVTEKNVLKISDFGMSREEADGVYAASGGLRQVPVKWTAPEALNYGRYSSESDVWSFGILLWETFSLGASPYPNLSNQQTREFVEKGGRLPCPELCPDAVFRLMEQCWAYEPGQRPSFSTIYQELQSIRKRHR

Fyn = Fyn (UniProt P06241); assay: as above
Hck = Hck (UniProt P08631); assay: as above
Jak2 = Jak2 (UniProt O60674); assay: as above
Jak2, sequence (O60674 whole entry, looked up): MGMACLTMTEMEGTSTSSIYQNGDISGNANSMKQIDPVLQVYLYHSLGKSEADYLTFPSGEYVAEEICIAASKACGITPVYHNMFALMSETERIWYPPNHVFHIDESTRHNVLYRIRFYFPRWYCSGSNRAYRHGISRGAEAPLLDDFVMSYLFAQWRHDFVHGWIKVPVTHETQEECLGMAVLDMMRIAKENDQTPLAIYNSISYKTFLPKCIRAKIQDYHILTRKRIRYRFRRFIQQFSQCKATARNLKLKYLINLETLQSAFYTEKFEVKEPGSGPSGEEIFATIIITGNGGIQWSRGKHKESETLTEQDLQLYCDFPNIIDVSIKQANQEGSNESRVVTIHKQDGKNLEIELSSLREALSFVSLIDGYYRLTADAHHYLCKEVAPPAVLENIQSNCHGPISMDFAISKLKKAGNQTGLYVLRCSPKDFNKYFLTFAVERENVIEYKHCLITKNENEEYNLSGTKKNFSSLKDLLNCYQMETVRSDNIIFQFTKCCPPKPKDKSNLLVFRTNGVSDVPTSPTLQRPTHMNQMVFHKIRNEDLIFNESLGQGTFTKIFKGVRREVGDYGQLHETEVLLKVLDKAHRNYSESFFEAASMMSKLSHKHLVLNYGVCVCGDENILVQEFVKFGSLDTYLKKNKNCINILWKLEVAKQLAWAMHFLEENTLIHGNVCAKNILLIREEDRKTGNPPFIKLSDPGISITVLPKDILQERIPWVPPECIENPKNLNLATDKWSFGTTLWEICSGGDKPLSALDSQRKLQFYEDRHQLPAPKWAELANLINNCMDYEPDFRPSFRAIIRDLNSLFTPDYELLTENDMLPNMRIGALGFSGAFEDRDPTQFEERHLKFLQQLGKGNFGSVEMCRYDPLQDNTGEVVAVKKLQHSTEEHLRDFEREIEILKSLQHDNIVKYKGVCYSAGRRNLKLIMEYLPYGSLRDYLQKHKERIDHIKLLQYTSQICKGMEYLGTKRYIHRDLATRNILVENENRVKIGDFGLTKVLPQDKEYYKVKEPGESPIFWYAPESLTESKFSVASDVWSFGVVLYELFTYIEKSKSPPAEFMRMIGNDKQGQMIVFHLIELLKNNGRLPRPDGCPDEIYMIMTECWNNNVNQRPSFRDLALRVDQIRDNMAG

MERTK = MERTK (UniProt Q12866); assay: as above
c-Abl (mouse) = assay: as above
c-Src = assay: as above
Grb2 SH2 = Grb2 SH2 (UniProt P62993); assay: SH2 binding enrichment of the phosphorylated peptide, bacterial display (enrichment ratio); higher = better substrate or ligand; peptides without Tyr show the background
SHP2-C SH2 = assay: as above
c-Src SH2 = assay: as above
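Wherever SH2 binding enrichment of the phosphorylated peptide, bacterial display is given: peptide library displayed on the E. coli surface as eCPX fusions, selected cells deep-sequenced, score is each peptide's frequency after selection divided by its frequency in the input.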
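Wherever phosphorylation enrichment, bacterial display is given: 11-residue human phosphosite peptides and single-mutation variants displayed on the E. coli surface, counted by deep sequencing, each peptide's frequency after selection divided by its frequency in the unselected input library; frequency after pTyr selection over input frequency; kinase dosed for 20-30% of maximal phosphorylation in three min.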

EPHB2, sequence (P29323 whole entry, looked up): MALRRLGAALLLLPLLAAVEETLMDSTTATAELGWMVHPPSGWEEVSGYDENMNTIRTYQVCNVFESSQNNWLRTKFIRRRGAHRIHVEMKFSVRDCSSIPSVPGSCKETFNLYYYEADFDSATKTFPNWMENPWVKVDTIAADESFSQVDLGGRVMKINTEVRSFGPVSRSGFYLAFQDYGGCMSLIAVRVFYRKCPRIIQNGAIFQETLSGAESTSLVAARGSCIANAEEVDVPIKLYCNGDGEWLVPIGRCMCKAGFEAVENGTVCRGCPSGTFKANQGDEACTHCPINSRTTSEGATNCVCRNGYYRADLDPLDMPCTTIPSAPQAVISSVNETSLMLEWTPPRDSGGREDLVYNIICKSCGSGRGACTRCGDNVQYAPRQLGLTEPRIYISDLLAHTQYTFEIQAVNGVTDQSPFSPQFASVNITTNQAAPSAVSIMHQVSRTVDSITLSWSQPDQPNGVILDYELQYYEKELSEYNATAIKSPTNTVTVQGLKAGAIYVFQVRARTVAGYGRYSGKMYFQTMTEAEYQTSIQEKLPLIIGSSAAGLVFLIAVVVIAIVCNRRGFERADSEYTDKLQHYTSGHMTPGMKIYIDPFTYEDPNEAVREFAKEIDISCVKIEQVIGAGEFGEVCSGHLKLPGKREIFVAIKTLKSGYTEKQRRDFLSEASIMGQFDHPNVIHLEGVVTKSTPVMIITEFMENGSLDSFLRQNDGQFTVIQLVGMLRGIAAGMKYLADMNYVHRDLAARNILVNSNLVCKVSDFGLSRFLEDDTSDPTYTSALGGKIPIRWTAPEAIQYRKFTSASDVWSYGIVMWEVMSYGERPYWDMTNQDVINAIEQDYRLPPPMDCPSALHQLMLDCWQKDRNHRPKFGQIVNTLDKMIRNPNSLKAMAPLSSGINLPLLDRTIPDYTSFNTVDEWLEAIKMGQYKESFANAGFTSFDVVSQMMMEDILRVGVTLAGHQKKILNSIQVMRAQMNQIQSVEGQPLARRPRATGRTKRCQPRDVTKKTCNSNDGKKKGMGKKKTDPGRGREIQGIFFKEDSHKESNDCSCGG
EPHB1, sequence (P54762 whole entry, looked up): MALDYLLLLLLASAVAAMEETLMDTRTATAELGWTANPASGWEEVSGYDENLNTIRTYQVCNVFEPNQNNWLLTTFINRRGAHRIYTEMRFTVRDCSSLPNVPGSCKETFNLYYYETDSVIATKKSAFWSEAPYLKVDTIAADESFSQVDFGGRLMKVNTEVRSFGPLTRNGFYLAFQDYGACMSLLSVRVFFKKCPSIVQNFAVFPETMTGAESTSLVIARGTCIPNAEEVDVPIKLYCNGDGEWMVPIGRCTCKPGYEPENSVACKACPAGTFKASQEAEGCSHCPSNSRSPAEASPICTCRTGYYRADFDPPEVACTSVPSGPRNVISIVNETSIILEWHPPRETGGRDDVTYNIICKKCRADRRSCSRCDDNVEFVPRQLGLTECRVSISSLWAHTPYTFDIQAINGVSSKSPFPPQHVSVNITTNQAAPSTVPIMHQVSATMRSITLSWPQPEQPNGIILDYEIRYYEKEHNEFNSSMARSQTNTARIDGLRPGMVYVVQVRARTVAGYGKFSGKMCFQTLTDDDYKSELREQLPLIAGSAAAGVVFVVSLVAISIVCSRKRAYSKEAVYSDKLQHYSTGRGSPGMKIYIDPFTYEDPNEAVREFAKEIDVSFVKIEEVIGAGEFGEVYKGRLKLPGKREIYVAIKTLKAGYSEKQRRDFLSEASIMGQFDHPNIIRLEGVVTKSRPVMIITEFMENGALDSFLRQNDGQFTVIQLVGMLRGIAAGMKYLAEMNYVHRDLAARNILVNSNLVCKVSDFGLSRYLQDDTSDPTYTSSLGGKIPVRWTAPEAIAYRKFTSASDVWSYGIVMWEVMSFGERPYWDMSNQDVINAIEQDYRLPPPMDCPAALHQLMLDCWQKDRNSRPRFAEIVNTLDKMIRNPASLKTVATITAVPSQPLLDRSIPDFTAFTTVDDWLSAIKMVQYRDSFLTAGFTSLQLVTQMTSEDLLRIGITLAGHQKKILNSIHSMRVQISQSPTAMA

| SH2 binding enrichment (Grb2 SH2) | SH2 binding enrichment (SHP2-C SH2) | SH2 binding enrichment (c-Src SH2) | Sequence | phosphorylation enrichment (AncSZ) | phosphorylation enrichment (EPHB1) | phosphorylation enrichment (EPHB2) | phosphorylation enrichment (FGFR1) | phosphorylation enrichment (FGFR3) | phosphorylation enrichment (Fer (mouse)) | phosphorylation enrichment (Fes) | phosphorylation enrichment (Fyn) | phosphorylation enrichment (Hck) | phosphorylation enrichment (Jak2) | phosphorylation enrichment (MERTK) | phosphorylation enrichment (c-Abl (mouse)) | phosphorylation enrichment (c-Src) |
| --- | --- | --- | --- | --- | --- | --- | --- | --- | --- | --- | --- | --- | --- | --- | --- | --- |
| 1.37 | 0.703 | 0.83 | FGFPGYQCKHF [TIMP3_Y177_S179C_YF] | 0.695 | 0.337 | 0.514 | 0.517 | 0.535 | 0.473 | 0.789 | 0.445 | 0.506 | 0.831 | 0.542 | 0.716 | 0.548 |
| 0.888 | 0.626 | 0.384 | GHGEEYPAAGA [NOTCH3_Y2221] | 0.682 | 0.41 | 0.327 | 0.413 | 0.719 | 0.433 | 0.821 | 0.426 | 0.431 | 0.549 | 0.379 | 0.469 | 0.377 |
| 0.796 | 0.615 | 0.338 | RGFRVCFTPDS [PTPRF_Y450_Y450C_YF] | 1.09 | 0.64 | 0.462 | 0.337 | 0.812 | 0.635 | 1.73 | 0.521 | 1.65 | 1.97 | 0.551 | 1.32 | 0.549 |
| 0.865 | 0.791 | 2.09 | ETWHNYHKFDS [MATR3_Y243_S240W] | 0.7 | 0.799 | 0.605 | 0.942 | 0.732 | 0.395 | 0.755 | 0.468 | 0.448 | 0.71 | 0.458 | 0.48 | 0.439 |
| 1.04 | 0.498 | 0.641 | RSACTYLASHL [PLK3_Y615] | 0.703 | 0.534 | 0.641 | 0.509 | 0.792 | 0.519 | 0.909 | 0.468 | 0.4 | 0.575 | 0.433 | 0.564 | 0.417 |
| 1.01 | 1.1 | 0.567 | HSDYQYGQRSQ [PKP2_Y168_S169G] | 0.618 | 0.449 | 0.335 | 0.357 | 0.457 | 0.478 | 0.44 | 0.578 | 0.574 | 0.446 | 0.439 | 0.484 | 0.402 |
| 0.852 | 1.11 | 1.14 | NVTGHYISPFH [PPA2_Y59] | 0.552 | 0.423 | 0.493 | 0.459 | 0.422 | 0.325 | 0.542 | 0.448 | 0.486 | 0.492 | 0.563 | 0.92 | 0.362 |
| 0.954 | 0.953 | 0.885 | NFATLHLKIYH [PDE6B_Y219_Y219H] | 1.16 | 0.675 | 0.536 | 0.423 | 0.755 | 0.498 | 1.41 | 0.476 | 0.47 | 1.12 | 0.46 | 1.01 | 0.568 |

Second part, the sequence before the results:

| Sequence | SH2 binding enrichment (Grb2 SH2) | SH2 binding enrichment (SHP2-C SH2) | SH2 binding enrichment (c-Src SH2) | phosphorylation enrichment (AncSZ) | phosphorylation enrichment (EPHB1) | phosphorylation enrichment (EPHB2) | phosphorylation enrichment (FGFR1) | phosphorylation enrichment (FGFR3) | phosphorylation enrichment (Fer (mouse)) | phosphorylation enrichment (Fes) | phosphorylation enrichment (Fyn) | phosphorylation enrichment (Hck) | phosphorylation enrichment (Jak2) | phosphorylation enrichment (MERTK) | phosphorylation enrichment (c-Abl (mouse)) | phosphorylation enrichment (c-Src) |
| --- | --- | --- | --- | --- | --- | --- | --- | --- | --- | --- | --- | --- | --- | --- | --- | --- |
| GVLKEYVVKVL [CPS1_Y529_G530V] | 0.949 | 0.748 | 0.479 | 0.989 | 0.477 | 0.491 | 0.383 | 0.546 | 0.384 | 1.06 | 0.389 | 0.386 | 0.814 | 0.32 | 0.67 | 0.355 |
| VERIGYDFIPT [CBS_Y308_G305R] | 0.934 | 0.686 | 3.49 | 0.759 | 0.544 | 0.461 | 0.56 | 0.605 | 0.417 | 0.801 | 0.529 | 0.571 | 0.611 | 0.521 | 0.593 | 0.434 |
| SLDLSYYPTSS [EMD_Y181] | 0.921 | 0.819 | 1.27 | 1.42 | 0.614 | 0.566 | 2.62 | 2.18 | 0.507 | 0.947 | 0.515 | 0.617 | 4.37 | 0.661 | 0.803 | 0.583 |
| LANNEYYFRVC | 0.539 | 0.562 | 0.42 | 1.6 | 0.682 | 0.993 | 3.72 | 3.11 | 0.62 | 1.27 | 0.743 | 0.794 | 1.51 | 0.823 | 0.573 | 0.516 |
| FSEVRYVKEPY [HIPK4_Y170] | 0.908 | 0.52 | 0.624 | 0.9 | 0.474 | 0.449 | 0.668 | 0.538 | 0.404 | 1.06 | 0.372 | 0.388 | 1.06 | 0.371 | 0.783 | 0.392 |
| DVFRQYASLRG [GANAB_Y379_T383R] | 0.842 | 31 | 1.57 | 0.482 | 0.329 | 0.435 | 0.453 | 0.41 | 0.295 | 0.625 | 0.393 | 0.404 | 0.504 | 0.384 | 0.459 | 0.399 |
